Measurements reported in US20200190189A1 (Adimab, published 2020).
Numbering of substitutions follows the chain as printed.

B1: ADI-22523 IgG1 (antibody, V domains shown)
VH: QVQLVQSGAEVKKPGASVKVSCKASGFNIKDYYMHWVRQAPGQRLEWMGWIDLENGNTIYDPKFQGRVTITRDTSASTAYMELSSLRSEDTAVYYCARDGYGRYFYDVWGQGTLVTVSS
VL: DIVMTQSPDSLAVSLGERATINCKSSQSLLNSRTGKNYLAWYQQKPGQPPKLLIYWASTRESGVPDRFSGSGSGTDFTLTISSLQAEDVAVYYCKQSYSRRTFGGGTKVEIK
B2: ADI-26915 IgG1 (antibody, V domains shown)
VH: B1 VH with N55E, P62A, G100V, Y101L
VL: B1 VL with S32A
B3: ADI-26908 IgG1 (antibody, V domains shown)
VH: B1 VH with N55E, P62A, G100A
VL: B1 VL with S32A
B4: ADI-26906 IgG1 (antibody, V domains shown)
VH: B1 VH with G56A, P62A, G100A
VL: B1 VL with S32A
B5: ADI-26913 IgG1 (antibody, V domains shown)
VH: B1 VH with G56A, P62A, G100Q
VL: B1 VL with S32A

Biological target: T1, Cynomolgus CD3εδ heterodimeric Fc fusion (Cy CD3εδ Fc) (cynomolgus)
T1 chain 1: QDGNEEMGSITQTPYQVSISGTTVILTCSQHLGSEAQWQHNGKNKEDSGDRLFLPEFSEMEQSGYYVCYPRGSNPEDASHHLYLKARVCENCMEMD
T1 chain 2: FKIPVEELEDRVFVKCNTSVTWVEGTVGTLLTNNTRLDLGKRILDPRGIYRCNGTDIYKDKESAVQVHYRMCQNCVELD
Assay: IgG, avid; method not named at the table (ForteBio BLI in Methods)
For B1, the Kd was 0.22 nM.
With B2 the Kd was 2.6 nM.
B3 gave a Kd of 0.31 nM.
In the case of B4, the Kd is reported as 0.25 nM.
In the case of B5, the Kd is reported as 0.4 nM.

Biological target: T2, Human CD3εδ heterodimeric Fc fusion (Hu CD3εδ Fc) (human)
T2 chain 1: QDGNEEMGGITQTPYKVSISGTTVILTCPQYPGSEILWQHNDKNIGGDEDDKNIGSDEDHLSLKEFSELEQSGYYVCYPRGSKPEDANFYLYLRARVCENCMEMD
T2 chain 2: T1 chain 2 with V5I, K15N, V20I, T32S, N33D, N34I, A64T, N74S
Assay: as above
B1 gave a Kd of 0.2 nM.
Binder B2 has a Kd of 3.3 nM.
B3 showed a Kd of 1.5 nM.
With B4 the Kd was 1.6 nM.
B5 was tested, and the Kd was 2.2 nM.
